Key:
GFP = assay: FP; conditions: negative control, little affinity
BamHI = assay: FP; conditions: negative control, little affinity

For random-sequence RNA, the Kd (GFP) was greater than 4 µM and the Kd (BamHI) was greater than 4 µM.
